This is an account of results in patent publication US20040138422A1 (published 2004).

Test [1] addresses CCR4 on CCR4-transfected B300.19 mouse lymphoma cells (human) (UniProt P51679). Nature of the test: cell-based or functional assay.
The target is the same in test [2]. Nature of the test: FACS, CCR4-transfected B300.19 cells, biotinylated chemokine then FITC-avidin. For orientation: Flow cytometry measures light scatter and fluorescence of single cells or particles in a stream.
Test [3] concerns the target T1, FITC-conjugated avidin (BD Biosciences) (UniProt P02701 25-152, FITC conjugate).
T1 construct: Detection reagent; also called FITC-avidin; FITC-labeled avidin
Nature of the test: FACS; avidin binds the biotin of the receptor-bound chemokine. An excerpt:
After 2 repetitive washings using staining buffer, cells were fixed in PBS with 1% FCS 1% and 1% PFA before FACS analysis.

*: point of attachment. Biotin = O=C1N[C@H]2[C@H](CS[C@H]2CCCCC(=O)*)N1

CCR4 on CCR4-transfected B300.19 mouse lymphoma cells (human), sequence (P51679 whole entry): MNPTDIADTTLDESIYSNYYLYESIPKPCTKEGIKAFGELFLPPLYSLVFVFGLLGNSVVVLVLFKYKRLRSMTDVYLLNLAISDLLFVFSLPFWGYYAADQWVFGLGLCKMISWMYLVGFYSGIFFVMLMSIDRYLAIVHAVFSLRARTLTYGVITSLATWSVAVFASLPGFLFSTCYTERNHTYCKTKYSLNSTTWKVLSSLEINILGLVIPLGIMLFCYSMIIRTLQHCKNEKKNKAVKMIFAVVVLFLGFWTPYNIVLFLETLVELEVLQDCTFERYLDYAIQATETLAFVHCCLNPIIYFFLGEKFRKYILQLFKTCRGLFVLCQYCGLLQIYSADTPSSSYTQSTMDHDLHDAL
T1 sequence (P02701 25-152 limits assumed): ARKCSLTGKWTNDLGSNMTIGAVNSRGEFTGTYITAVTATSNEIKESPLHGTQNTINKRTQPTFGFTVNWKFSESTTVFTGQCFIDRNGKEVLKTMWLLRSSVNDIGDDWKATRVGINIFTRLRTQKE

In test [1], “biotinylated CCL22(G1) analogue (from UniProt O00626 25-93) (ligand)” gave a dose at which minimal migration is still detectable of 0.1 ng/mL and a dose for optimal migration of CCR4-transfected cells of 1 to 10 ng/mL. Moreover, the MFI in test [2] worked out at 5.9.

For “biotinylated CCL22(K49) analogue (from UniProt O00626 25-93) (ligand)”, in test [1], the dose at which minimal migration is still detectable was 0.1 ng/mL and the dose for optimal migration of CCR4-transfected cells fell in the range of 1 to 10 ng/mL. For the same molecule, in test [2], the MFI was 6.1.

Consider “biotinylated CCL22(K61) analogue (from UniProt O00626 25-93) (ligand)”, for which, in test [1], the dose at which minimal migration is still detectable amounted to 0.1 ng/mL and the dose for optimal migration of CCR4-transfected cells was in the range of 1 to 10 ng/mL. In addition, the MFI in test [2] came out at 6.6.

B1: biotinylated CCL22(K66) analogue (ligand)
chain: GPYGANMEDSVCCRDYVRYRLPLRVVKHFYWTSDSCPRPGVVLLTFRDKEICADPRVPWVKMILNK(Biotin)LSQ
notes: Synthetic human CCL22 with one biotin; also called biotinylated h-MDC
Take B1: the binding result in test [3] is recorded as “binds”.
